The values below come from patent US12415869B2, “Chemically induced protein dimerization systems” (UNIVERSITY OF WASHINGTON, priority 2019, dated 2025).

Holding throughout (format): binding
Experiment [1] concerns CA-14-CBD complex. As to the kind of experiment: BLI of immobilized dimerization binders with CA-14 pre-equilibrated with CBD. The note with it: for Koff / Kon: CBD +. The source says:
(§1) With the purified DB nanobodies in hand, we first sought to determine their binding affinities to the CA-14-CBD. CBD might directly bind to selected dimerization binders, which can affect the affinity measurement. To rule out this possibility, the four nanobodies were biotinylated (FIG. 7c) and immobilized on streptavidin biosensors, and the interaction with CBD was detected by BLI. Only minimal binding between CBD and the dimerization binders was detected (data not shown). Moreover, the binding-dissociation dynamics of the CA-14-CBD complex can also affect the measurement of dimerization binder affinities. To address this, the affinity was measured by a BLI assay in which the biosensor-immobilized dimerization binders were interacted with CA-14 pre-equilibrated with varied concentrations of CBD (FIG. 9a). The concentrations of the CA-14-CBD complex in equilibrium were calculated based on input CA-14 and CBD concentrations. The CA-14-CBD complex concentration was approximated to be constant because only a minimal fraction of the complex bound to the biosensor tips during the BLI assay. It was confirmed that CA-14 only interacts with the dimerization binders in the presence of CBD (FIG. 3a). The KDs of the four dimerization binders varied from 56.4 nM to 19 μM (Table 5).
The nanobody binding kinetics was analyzed using an Octet™ RED96 system (ForteBio) and Streptavidin (SA) or Super Streptavidin (SSA) biosensors. For the anchor-binder analysis, 200 nM biotinylated anchor binders were immobilized on SSA biosensors with a binding assay buffer (1×PBS, pH 7.4, 0.05% Tween 20, 0.2% BSA, 3% methanol; Note: because CBD and THC were dissolved in methanol to make stock solutions, 3% methanol was added to the buffer to fairly compare samples and controls). Serial dilutions of CBD and THC were used for the anchor binder assays. Dissociation constants (KDs) of anchor binder-ligand interactions were calculated based on a steady-state analysis using Octet™ RED96 data analysis software. For the dimerization-binder analysis, 200 nM biotinylated dimerization binders were immobilized on SA biosensors with the binding assay buffer and then assayed with 1 μM CA-14 pre-equilibrated with serial dilutions of CBD or THC. KDs, kons, and koffs of the interactions between anchor binder-ligand complexes and dimerization binders were calculated based on a heterogeneous ligand model global fit (2:1) of the data and simulated binding equilibria of the anchor binder and CBD described in Supplementary Notes.
In order to determine the binding kinetics of our nanobody CID system we performed a series of bio layer interferometry (BLI) experiments. In all experiments we used an Octet RED96 system (ForteBio) and Streptavidin Biosensors (ForteBio). 200 nM biotinylated protein (FIGS. 7b & 4C) were immobilized on biosensors (Super Streptavidin, SSA used for anchor binder; Streptavidin, SA used for dimerization binder) with a binding assay buffer (1×PBS, pH 7.4, 0.05% Tween 20, 0.2% BSA, 3% methanol; Note: because CBD and THC were dissolved in methanol to make stock solutions, 3% methanol was added to the buffer to fairly compare samples and controls). Ligand loading was followed by a quenching step using free biotin. All experiments were performed using four measurements to control for sensor drift and unspecific binding: • No ligand, no analyte • With ligand, no analyte • No ligand, with analyte • With ligand, with analyte
Next, we wanted to determine the binding affinity between CA-14 bound to CBD (referred to as CA-14*) and a panel of DBs. We observed no detectable binding between CA-14 and any of the DBs (FIG. 3a). We also rely on the observation that the DBs have weak binding to CBD, and therefore we can assume that only CA-14* binds the DB loaded to the sensor. We control the CA-14* concentration by using a fixed concentration of 1 μM CA-14 pre-incubated to equilibrium with six different concentrations of CBD. […]

Experiment [2] is described as follows: Bio-Layer Interferometry (BLI) of immobilized anchor binders with unlabeled CBD or THC. As to conditions: unlabeled CBD, anchor binder immobilized on Super Streptavidin biosensors, steady-state analysis, read-out: dissociation constants (KDs) of anchor binder to CBD. The source says: To confirm that the nanobody binding only requires CBD, and not the linker between CBD and biotin or the streptavidin, we measured the binding affinity using unlabeled CBD. Anchor-binder hits were expressed in E. coli periplasm and purified by nickel-affinity and size-exclusion chromatography (SEC). Purified nanobodies were enzymatically biotinylated (FIG. 7a-b) and immobilized on streptavidin biosensors to quantify binding affinities to CBD or THC by Bio-Layer Interferometry (BLI) (FIG. 8a).
The nanobody binding kinetics was analyzed using an Octet™ RED96 system (ForteBio) and Streptavidin (SA) or Super Streptavidin (SSA) biosensors. […] Dissociation constants (KDs) of anchor binder-ligand interactions were calculated based on a steady-state analysis using Octet™ RED96 data analysis software. […] KDs, kons, and koffs of the interactions between anchor binder-ligand complexes and dimerization binders were calculated based on a heterogeneous ligand model global fit (2:1) of the data and simulated binding equilibria of the anchor binder and CBD described in Supplementary Notes. […]
We first determined the binding affinity between the CBD anchor 14 (CA-14) and CBD via steady-state analysis (FIG. 8). […] We observed minimal binding between DBs and CBD, but the KDs are too weak to be determined (data not shown).
On the technique in general: Biolayer interferometry detects binding as a change in optical thickness at a sensor tip.

Experiment [3] can be described thus: BLI of immobilized dimerization binders with CBD alone.
Source text: as §1, with “It was confirmed that CA-14 only interacts with the dimerization binders in the presence of CBD (FIG. 3a). The KDs of the four dimerization binders varied from 56.4 nM to 19 μM (Table 5).” left out
We first determined the binding affinity between the CBD anchor 14 (CA-14) and CBD via steady-state analysis (FIG. 8). […] We observed minimal binding between DBs and CBD, but the KDs are too weak to be determined (data not shown). […]

B1: DB-6: dimerization binder nanobody; CDRs RFSWGEE, WAATPWQ, DEWHIGHVS (SEQ ID NO: 25-27) (protein)
VHH: EVQLQASGGGFVQPGGSLRLSCAASGRFSWGEEMGWFRQAPGKEREFVSAISWAATPWQYYADSVKGRFTISRDNSKNTVYLQMNSLRAEDTATYYCADEWHIGHVSYWGQGTQVTVSS
modifications: left off: small tags and cut ends
With B1, in experiment [1], the Koff is recorded as 1,820 10^−4s^−1 and the Kon is 0.096 10^5 M^−1s^−1.

B2: CA-14: anchor binder nanobody; CDR1 SRSRQYD, CDR2 SNQDQPP, CDR3 FKQHHANGA (SEQ ID NO: 1-3) (protein)
VHH: EVQLQASGGGFVQPGGSLRLSCAASGSTSRQYDMGWFRQAPGKEREFVSAISSNQDQPPYYADSVKGRFTISRDNSKNTVYLQMNSLRAEDTATYYCAFKQHHANGAYWGQGTQVTVSS
modifications: left off: small tags and cut ends
In the case of B2, the Kd in experiment [2] is 6 µM.

B3: DB-21: dimerization binder nanobody; CDRs TTYGQTN, GLQGRDL, FHDFLRMWE (SEQ ID NO: 70-72) (protein)
VHH: EVQLQASGGGFVQPGGSLRLSCAASGTTYGQTNMGWFRQAPGKEREFVSAISGLQGRDLYYADSVKGRFTISRDNSKNTVYLQMNSLRAEDTATYYCAFHDFLRMWEYWGQGTQVTVSS
modifications: left off: small tags and cut ends
Turning to B3, in experiment [3] (BLI, CBD alone, data not shown), the “binding between CBD and the dimerization binders” value is listed as “very weakly”. For the same molecule, the Kd in experiment [3] (worked out from KBC/α 56 nM with α=1,000 as a reasonable guess, read-out: KBC (DB-21's affinity to CBD)) stood at 56 µM. The Kd in experiment [1] (BLI, CA-14* = CA-14 bound to CBD, read-out: CA-14*'s affinity to DB-21 (KBC/α)) is 0.056 µM. The dissociation rate koff in experiment [1] (CA-14 with CBD) turned out to be 0.000617 s⁻¹. Besides, in experiment [1], the Koff is 6.17 10^−4s^−1 and the Kon is listed as 0.11 10^5 M^−1s^−1.

B4: DB-11: dimerization binder nanobody; CDRs TTSDNDT, WNGGRDE, YQDNRSWQE (SEQ ID NO: 40-42) (protein)
VHH: EVQLQASGGGFVQPGGSLRLSCAASGTTSDNDTMGWFRQAPGKEREFVSAISWNGGRDEYYADSVKGRFTISRDNSKNTVYLQMNSLRAEDTATYYCAYQDNRSWQEYWGQGTQVTVSS
modifications: left off: small tags and cut ends
As to B4, in experiment [1], the Koff is recorded as 840 10^−4s^−1 and the Kon is recorded as 0.61 10^5 M^−1s^−1.

B5: DB-18: dimerization binder nanobody; CDRs GYSRADD, FGETDSF, YHNYTNMFE (SEQ ID NO: 61-63) (protein)
VHH: EVQLQASGGGFVQPGGSLRLSCAASGGYSRADDMGWFRQAPGKEREFVSAISFGETDSFYYADSVKGRFTISRDNSKNTVYLQMNSLRAEDTATYYCAYHNYTNMFEYWGQGTQVTVSS
modifications: left off: small tags and cut ends
As for B5, in experiment [1], the Koff is on record as 227 10^−4s^−1 and the Kon is 0.41 10^5 M^−1s^−1.
